PMC11430298, “Complexes of HMO1 with DNA: Structure and Affinity”

T1: HMO1 (Saccharomyces cerevisiae, UniProt Q03973 1-246)
T1 sequence: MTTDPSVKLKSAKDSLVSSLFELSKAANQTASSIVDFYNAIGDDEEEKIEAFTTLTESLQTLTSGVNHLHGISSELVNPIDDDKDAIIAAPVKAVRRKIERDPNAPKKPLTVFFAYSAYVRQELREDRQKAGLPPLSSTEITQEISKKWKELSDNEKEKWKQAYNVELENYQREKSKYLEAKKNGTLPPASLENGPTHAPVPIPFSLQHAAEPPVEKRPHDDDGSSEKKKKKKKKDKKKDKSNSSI


Biological target: T1, HMO1
Experiment: EMSA; apparent Kd from Hill fit of free DNA; 6 nM DNA; EMSA: 17 mM HEPES pH 7.6, 2 mM Tris-HCl, 0.8 mM Na3EDTA, 0.11 mM 2-mercaptoethanol, 11 mM NaCl, 1.1% glycerol, 12% sucrose; 6 nM DNA, 10-800 nM HMO1, 30 min at
Details: protein: recombinant, tags: N-terminal His6 (pET15b), blunt

Binder | Kd (label: 5'-Cy3 on strand 2 (S6)) [nM] | Kd (label: 5'-Cy3 on strand 1 (S3)) [nM]
SO duplex (IFHL site) (dsDNA) DNA 1: ACTACGCTCTAGGCAGAGTTCACC DNA 2: GGTGAACTCTGCCTAGAGCGTAGT | 62 | –
RO duplex (randomized sequence) (dsDNA) DNA 1: CTATCGGCACACTTCACGGCACAC DNA 2: GTGTGCCGTGAAGTGTGCCGATAG | – | 128
